T1: human FcγRIIA-R131 α subunit extracellular domain-His6-GST fusion (human, UniProt P12318 34-217)
T1 construct: ECD-6His-GST fusion made in 293 cells; also called FcγRIIA-Arg131; not shown: glutathione S transferase (GST)
T1 sequence: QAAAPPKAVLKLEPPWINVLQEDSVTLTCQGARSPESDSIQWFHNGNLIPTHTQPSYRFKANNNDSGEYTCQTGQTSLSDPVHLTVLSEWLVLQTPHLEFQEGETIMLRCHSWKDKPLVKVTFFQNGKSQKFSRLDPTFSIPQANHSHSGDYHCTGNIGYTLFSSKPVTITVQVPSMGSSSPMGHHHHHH


Key:
[1] = target: T2, human FcγRIIIA-F158 α subunit extracellular domain-His6-GST fusion (human, UniProt P08637 17-208); assay: ELISA, IgG complex, receptor coated
T2 construct: ECD-6His-GST fusion made in 293 cells; also called FcγRIIIA-Phe158; not shown: glutathione S transferase (GST)

[2] = target: T1, human FcγRIIA-R131 α subunit …; assay: ELISA, IgG complex, receptor coated
[3] = target: T3, human FcγRIIIA-V158 α subunit extracellular domain-His6-GST fusion (human, UniProt P08637 17-208); assay: ELISA, IgG complex, receptor coated
T3 construct: ECD-6His-GST fusion made in 293 cells; also called FcγRIIIA-Val158; not shown: glutathione S transferase (GST)

[4] = target: T3, human FcγRIIIA-V158 α subunit …; assay: ELISA, IgG monomer, receptor coated

T3 sequence (P08637 other isoform, or with tags, fused parts or gaps, form in doubt): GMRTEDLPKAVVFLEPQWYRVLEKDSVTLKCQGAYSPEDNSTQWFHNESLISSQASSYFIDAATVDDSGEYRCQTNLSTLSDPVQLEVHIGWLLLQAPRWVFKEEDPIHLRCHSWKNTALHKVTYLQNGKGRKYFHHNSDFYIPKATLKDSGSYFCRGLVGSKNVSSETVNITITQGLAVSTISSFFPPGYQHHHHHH
T2 sequence (P08637 other isoform, or with tags, fused parts or gaps, form in doubt): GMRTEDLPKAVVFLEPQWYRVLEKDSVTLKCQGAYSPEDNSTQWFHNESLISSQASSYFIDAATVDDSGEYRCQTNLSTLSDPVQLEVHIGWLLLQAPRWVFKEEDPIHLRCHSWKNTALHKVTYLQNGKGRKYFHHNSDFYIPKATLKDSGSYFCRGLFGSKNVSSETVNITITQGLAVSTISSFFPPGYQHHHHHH

Row | ratio of binding, variant/native IgG1 (mean) [1] | ratio of binding, variant/native IgG1 (mean) [2] | ratio of binding, variant/native IgG1 (mean) [3] | ratio of binding, variant/native IgG1 (mean) [4] | Binder
1 | 0.09 ratio | 0.07 ratio | 0.01 ratio | – | anti-IgE E27 IgG1 variant D265(278)A (antibody, Fc variant of E27; also called IG2 14; G14) heavy: not shown light: DIQLTQSPSSLSASVGDRVTITCRASKPVDGEGDSYLNWYQQKPGKAPKLLIYAASYLESGVPSRFSGSGSGTDFTLTISSLQPEDFATYYCQQSHEDPYTFGQGTKVEIKRTVAAPSVFIFPPSDEQLKSGTASVVCLLNNFYPREAKVQWKVDNALQSGNSQESVTEQDSKDSTYSLSSTLTLSKADYEKHKVYACEVTHQGLSSPVTKSFNRGEC
2 | 1.15 ratio | 0.71 ratio | – | 1.64 ratio | anti-IgE E27 IgG1 variant R292(309)K (antibody, Fc variant of E27; also called IG2 80) heavy: not shown light: DIQLTQSPSSLSASVGDRVTITCRASKPVDGEGDSYLNWYQQKPGKAPKLLIYAASYLESGVPSRFSGSGSGTDFTLTISSLQPEDFATYYCQQSHEDPYTFGQGTKVEIKRTVAAPSVFIFPPSDEQLKSGTASVVCLLNNFYPREAKVQWKVDNALQSGNSQESVTEQDSKDSTYSLSSTLTLSKADYEKHKVYACEVTHQGLSSPVTKSFNRGEC
3 | 0.92 ratio | 0.21 ratio | – | 1.21 ratio | anti-IgE E27 IgG1 variant R292(309)H (antibody, Fc variant of E27; also called IG2 81) heavy: not shown light: DIQLTQSPSSLSASVGDRVTITCRASKPVDGEGDSYLNWYQQKPGKAPKLLIYAASYLESGVPSRFSGSGSGTDFTLTISSLQPEDFATYYCQQSHEDPYTFGQGTKVEIKRTVAAPSVFIFPPSDEQLKSGTASVVCLLNNFYPREAKVQWKVDNALQSGNSQESVTEQDSKDSTYSLSSTLTLSKADYEKHKVYACEVTHQGLSSPVTKSFNRGEC
4 | 0.88 ratio | 0.54 ratio | – | 0.91 ratio | anti-IgE E27 IgG1 variant R292(309)N (antibody, Fc variant of E27; also called IG2 83) heavy: not shown light: DIQLTQSPSSLSASVGDRVTITCRASKPVDGEGDSYLNWYQQKPGKAPKLLIYAASYLESGVPSRFSGSGSGTDFTLTISSLQPEDFATYYCQQSHEDPYTFGQGTKVEIKRTVAAPSVFIFPPSDEQLKSGTASVVCLLNNFYPREAKVQWKVDNALQSGNSQESVTEQDSKDSTYSLSSTLTLSKADYEKHKVYACEVTHQGLSSPVTKSFNRGEC
5 | 0.92 ratio | 0.98 ratio | – | 1.1 ratio | anti-IgE E27 IgG1 variant E380(405)A/L309(328)A (antibody, Fc variant of E27; also called IG2 271; Glu380Ala/Leu309Ala) heavy: not shown light: DIQLTQSPSSLSASVGDRVTITCRASKPVDGEGDSYLNWYQQKPGKAPKLLIYAASYLESGVPSRFSGSGSGTDFTLTISSLQPEDFATYYCQQSHEDPYTFGQGTKVEIKRTVAAPSVFIFPPSDEQLKSGTASVVCLLNNFYPREAKVQWKVDNALQSGNSQESVTEQDSKDSTYSLSSTLTLSKADYEKHKVYACEVTHQGLSSPVTKSFNRGEC
6 | 0.9 ratio | 0.27 ratio | – | 0.94 ratio | anti-IgE E27 IgG1 variant R292(309)A (antibody, Fc variant of E27; also called IG2 31; G31) heavy: not shown light: DIQLTQSPSSLSASVGDRVTITCRASKPVDGEGDSYLNWYQQKPGKAPKLLIYAASYLESGVPSRFSGSGSGTDFTLTISSLQPEDFATYYCQQSHEDPYTFGQGTKVEIKRTVAAPSVFIFPPSDEQLKSGTASVVCLLNNFYPREAKVQWKVDNALQSGNSQESVTEQDSKDSTYSLSSTLTLSKADYEKHKVYACEVTHQGLSSPVTKSFNRGEC
7 | 0.68 ratio | 1.15 ratio | – | 0.88 ratio | anti-IgE E27 IgG1 variant K334(353)R (antibody, Fc variant of E27; also called Lys334Arg) heavy: not shown light: DIQLTQSPSSLSASVGDRVTITCRASKPVDGEGDSYLNWYQQKPGKAPKLLIYAASYLESGVPSRFSGSGSGTDFTLTISSLQPEDFATYYCQQSHEDPYTFGQGTKVEIKRTVAAPSVFIFPPSDEQLKSGTASVVCLLNNFYPREAKVQWKVDNALQSGNSQESVTEQDSKDSTYSLSSTLTLSKADYEKHKVYACEVTHQGLSSPVTKSFNRGEC
8 | 1.66 ratio | 0.35 ratio | 1.19 ratio | – | anti-IgE E27 IgG1 variant S298(317)A/E333(352)A/K334(353)A (antibody, Fc variant of E27; also called IG2 110; Ser298Ala/Glu333Ala/Lys334Ala) heavy: EVQLVESGGGLVQPGGSLRLSCAVSGYSITSGYSWNWIRQAPGKGLEWVASIKYSGETKYNPSVKGRITISRDDSKNTFYLQMNSLRAEDTAVYYCARGSHYFGHWHFAVWGQGTLVTVSSASTKGPSVFPLAPSSKSTSGGTAALGCLVKDYFPEPVTVSWNSGALTSGVHTFPAVLQSSGLYSLSSVVTVPSSSLGTQTYICNVNHKPSNTKVDKKVEPKSCDKTHTCPPCPAPELLGGPSVFLFPPKPKDTLMISRTPEVTCVVVDVSHEDPEVKFNWYVDGVEVHNAKTKPREEQYNATYRVVSVLTVLHQDWLNGKEYKCKVSNKALPAPIAATISKAKGQPREPQVYTLPPSREEMTKNQVSLTCLVKGFYPSDIAVEWESNGQPENNYKTTPPVLDSDGSFFLYSKLTVDKSRWQQGNVFSCSVMHEALHNHYTQKSLSLSPGK light: DIQLTQSPSSLSASVGDRVTITCRASKPVDGEGDSYLNWYQQKPGKAPKLLIYAASYLESGVPSRFSGSGSGTDFTLTISSLQPEDFATYYCQQSHEDPYTFGQGTKVEIKRTVAAPSVFIFPPSDEQLKSGTASVVCLLNNFYPREAKVQWKVDNALQSGNSQESVTEQDSKDSTYSLSSTLTLSKADYEKHKVYACEVTHQGLSSPVTKSFNRGEC
9 | 0.42 ratio | 1.06 ratio | – | 0.36 ratio | anti-IgE E27 IgG1 variant P331(350)E (antibody, Fc variant of E27; also called IG2 200) heavy: not shown light: DIQLTQSPSSLSASVGDRVTITCRASKPVDGEGDSYLNWYQQKPGKAPKLLIYAASYLESGVPSRFSGSGSGTDFTLTISSLQPEDFATYYCQQSHEDPYTFGQGTKVEIKRTVAAPSVFIFPPSDEQLKSGTASVVCLLNNFYPREAKVQWKVDNALQSGNSQESVTEQDSKDSTYSLSSTLTLSKADYEKHKVYACEVTHQGLSSPVTKSFNRGEC
10 | 1.13 ratio | 0.51 ratio | 1.07 ratio | – | anti-IgE E27 IgG1 variant K334(353)D (antibody, Fc variant of E27; also called IG2 140) heavy: not shown light: DIQLTQSPSSLSASVGDRVTITCRASKPVDGEGDSYLNWYQQKPGKAPKLLIYAASYLESGVPSRFSGSGSGTDFTLTISSLQPEDFATYYCQQSHEDPYTFGQGTKVEIKRTVAAPSVFIFPPSDEQLKSGTASVVCLLNNFYPREAKVQWKVDNALQSGNSQESVTEQDSKDSTYSLSSTLTLSKADYEKHKVYACEVTHQGLSSPVTKSFNRGEC
11 | 0.33 ratio | 0.94 ratio | – | 0.26 ratio | anti-IgE E27 IgG1 variant P331(350)K (antibody, Fc variant of E27) heavy: not shown light: DIQLTQSPSSLSASVGDRVTITCRASKPVDGEGDSYLNWYQQKPGKAPKLLIYAASYLESGVPSRFSGSGSGTDFTLTISSLQPEDFATYYCQQSHEDPYTFGQGTKVEIKRTVAAPSVFIFPPSDEQLKSGTASVVCLLNNFYPREAKVQWKVDNALQSGNSQESVTEQDSKDSTYSLSSTLTLSKADYEKHKVYACEVTHQGLSSPVTKSFNRGEC
12 | 0.45 ratio | 0.47 ratio | – | 0.56 ratio | anti-IgE E27 IgG1 variant R292(309)Q (antibody, Fc variant of E27; also called IG2 82) heavy: not shown light: DIQLTQSPSSLSASVGDRVTITCRASKPVDGEGDSYLNWYQQKPGKAPKLLIYAASYLESGVPSRFSGSGSGTDFTLTISSLQPEDFATYYCQQSHEDPYTFGQGTKVEIKRTVAAPSVFIFPPSDEQLKSGTASVVCLLNNFYPREAKVQWKVDNALQSGNSQESVTEQDSKDSTYSLSSTLTLSKADYEKHKVYACEVTHQGLSSPVTKSFNRGEC
13 | 0.23 ratio | 0.86 ratio | – | 0.24 ratio | anti-IgE E27 IgG1 variant P331(350)N (antibody, Fc variant of E27; also called IG2 199) heavy: not shown light: DIQLTQSPSSLSASVGDRVTITCRASKPVDGEGDSYLNWYQQKPGKAPKLLIYAASYLESGVPSRFSGSGSGTDFTLTISSLQPEDFATYYCQQSHEDPYTFGQGTKVEIKRTVAAPSVFIFPPSDEQLKSGTASVVCLLNNFYPREAKVQWKVDNALQSGNSQESVTEQDSKDSTYSLSSTLTLSKADYEKHKVYACEVTHQGLSSPVTKSFNRGEC
14 | 0.86 ratio | 1 ratio | – | 0.54 ratio | anti-IgE E27 IgG1 variant P331(350)S (antibody, Fc variant of E27; also called IG2 198; Pro331Ser) heavy: not shown light: DIQLTQSPSSLSASVGDRVTITCRASKPVDGEGDSYLNWYQQKPGKAPKLLIYAASYLESGVPSRFSGSGSGTDFTLTISSLQPEDFATYYCQQSHEDPYTFGQGTKVEIKRTVAAPSVFIFPPSDEQLKSGTASVVCLLNNFYPREAKVQWKVDNALQSGNSQESVTEQDSKDSTYSLSSTLTLSKADYEKHKVYACEVTHQGLSSPVTKSFNRGEC
15 | 1.05 ratio | 0.87 ratio | – | 1.23 ratio | anti-IgE E27 IgG1 variant E333(352)G (antibody, Fc variant of E27; also called IG2 178) heavy: not shown light: DIQLTQSPSSLSASVGDRVTITCRASKPVDGEGDSYLNWYQQKPGKAPKLLIYAASYLESGVPSRFSGSGSGTDFTLTISSLQPEDFATYYCQQSHEDPYTFGQGTKVEIKRTVAAPSVFIFPPSDEQLKSGTASVVCLLNNFYPREAKVQWKVDNALQSGNSQESVTEQDSKDSTYSLSSTLTLSKADYEKHKVYACEVTHQGLSSPVTKSFNRGEC
